Publication PMC5150656, “Detecting stoichiometry of macromolecular complexes in live cells using FRET” (Nature Communications, 2016)

The binders below were run against T1, ECFP-tagged calmodulin (CaM) (UniProt P0DP23 1-149) (assay: FRET or BRET; FRET 2-hybrid (3^3-FRET and E-FRET) in single live HEK293 cells, room temperature, basal (resting) Ca2+: Tyrode's bath with 2 mM Ca2+; relative (effective) dissociation constants Kd,EFF; stoichiometry ratio ν = EA,max/ED,max). Details: partners not purified.
T1 construct: calmodulin (CaM); also called ECFP-CaM; ECFP fused CaM; source: HEK293, transiently transfected, in live cells

Row | Binder | Kd [nM]
1 | EYFP tagged myosin Va five tandem IQ domain truncation (IQ2-6) (domain or fragment, mouse myosin Va neck domain, five tandem IQ domains IQ2-6, residues M789-K920 (Uniprot Q99104); A three amino-acid linker 'AAA' joins EYFP with the peptide; source: HEK293, transiently transfected, in live cells) MQRAAITVQRYVRGYQARCYAKFLRRTKAATTIQKYWRMYVVRRRYKIRRAATIVIQSYLRGYLTRNRYRKILREYKAVIIQKRVRGWLARTHYKRTMKAIVYLQCCFRRMMAKRELKKLKIEARSVERYKK | ~25
2 | EYFP tagged myosin Va two tandem IQ domain peptide (IQ5-6) (domain or fragment, mouse myosin Va neck domain, two tandem IQ domains IQ5-6, residues R862-K920 (Uniprot Q99104); A three amino-acid linker 'AAA' joins EYFP with the peptide; source: HEK293, transiently transfected, in live cells) REYKAVIIQKRVRGWLARTHYKRTMKAIVYLQCCFRRMMAKRELKKLKIEARSVERYKK | ~25

Other lines, results leading:

Row | Kd [nM] | Binder
3 | ~25 | EYFP tagged myosin Va four tandem IQ domain peptide (IQ3-6) (domain or fragment, mouse myosin Va neck domain, four tandem IQ domains IQ3-6, residues R814-K920 (Uniprot Q99104); A three amino-acid linker 'AAA' joins EYFP with the peptide; source: HEK293, transiently transfected, in live cells) RTKAATTIQKYWRMYVVRRRYKIRRAATIVIQSYLRGYLTRNRYRKILREYKAVIIQKRVRGWLARTHYKRTMKAIVYLQCCFRRMMAKRELKKLKIEARSVERYKK
4 | ~25 | EYFP-tagged full length myosin Va neck domain peptide containing six IQ domains (IQ1-6) (domain or fragment, mouse myosin Va full length neck domain, six tandem IQ domains IQ1-6, residues L766-K920 (Uniprot Q99104); A three amino-acid linker 'AAA' joins EYFP with the peptide; source: HEK293, transiently transfected, in live cells) LRAACIRIQKTIRGWLLRKRYLCMQRAAITVQRYVRGYQARCYAKFLRRTKAATTIQKYWRMYVVRRRYKIRRAATIVIQSYLRGYLTRNRYRKILREYKAVIIQKRVRGWLARTHYKRTMKAIVYLQCCFRRMMAKRELKKLKIEARSVERYKK
5 | ~25 | EYFP tagged myosin Va three tandem IQ domain peptide (IQ4-6) (domain or fragment, mouse myosin Va neck domain, three tandem IQ domains IQ4-6, residues R837-K920 (Uniprot Q99104); A three amino-acid linker 'AAA' joins EYFP with the peptide; source: HEK293, transiently transfected, in live cells) RRAATIVIQSYLRGYLTRNRYRKILREYKAVIIQKRVRGWLARTHYKRTMKAIVYLQCCFRRMMAKRELKKLKIEARSVERYKK
6 | ~25 | TMKAIVYLQCCFRRMMAKRELKKLKIEARSVERYKK (domain or fragment, mouse myosin Va neck domain, single IQ domain IQ6, residues T885-K920 (Uniprot Q99104); A three amino-acid linker 'AAA' joins EYFP with the peptide; also called EYFP-tagged IQ6 peptide; source: HEK293, transiently transfected, in live cells) [EYFP tagged myosin Va peptide containing a single IQ domain (IQ6)]
